Reference: patent US9266930
Like-named read-outs stand apart in the source and are kept apart here.

Key:
[1] = molecular target: HLA-A*0301 (human)
[2] = molecular target: HLA-A*1101 (human)
[3] = molecular target: HLA-A*1101 (Human)
[4] = molecular target: HLA-A*1101 (human); assay: competition with 125I-labeled probe peptide for purified HLA, gel filtration
[5] = molecular target: HLA-A*0301 (human); assay: as above
[6] = molecular target: HLA-A*1101 (human); remark: listed apart in the source
[7] = molecular target: HLA-A*3101 (human); assay: competition with 125I-labeled probe peptide for purified HLA, gel filtration
[8] = molecular target: HLA-A*6801 (human); assay: as above
[9] = molecular target: HLA-A*3301 (human); assay: as above
[10] = molecular target: HLA-A*0201 (Human)
[11] = molecular target: HLA-A*6801 (human)
[12] = molecular target: HLA-A*3101 (human)
[13] = molecular target: HLA-A*3301 (human)

“[…] (Pf LSA 61, 10-mer A03 supermotif peptide) (peptide; other documents disagree on this pair)” gave a binding affinity ratio (IC50 of standard peptide / IC50 of test peptide) [1] of 0.0004.
In the case of “[…] (Pf LSA 16, 9-mer A03 supermotif peptide) (peptide; other documents disagree on this pair)”, the binding affinity ratio (IC50 of standard peptide / IC50 of test peptide) [2] is reported as 0.01 and the binding affinity ratio (IC50 of standard peptide / IC50 of test peptide) [1] is reported as 0.026.
With “[…] (Pf LSA 1854, 10-mer A03 supermotif peptide) (peptide; other documents disagree on this pair)” the binding affinity ratio (IC50 of standard peptide / IC50 of test peptide) [2] was 0.049.
“[…] (LSA, position 68, 9 amino acids) (peptide; other documents disagree on this pair)” gave a binding affinity ratio (IC50 of standard peptide / IC50 of test peptide) [3] of 0.0038.
“[…] (LSA, position 1854, 9 amino acids) (peptide; other documents disagree on this pair)” was tested, and the binding affinity ratio (IC50 of standard peptide / IC50 of test peptide) [3] was 0.034.
“[…] (LSA, position 1704, 9 amino acids) (peptide; other documents disagree on this pair)” was tested, and the binding affinity ratio (IC50 of standard peptide / IC50 of test peptide) [3] was 0.0007.
Substance “[…] (P. falciparum LSA, position 1626, 10 amino acids) (peptide; other documents disagree on this pair)” has a binding affinity ratio (relative to standard peptide) [4] of 0.0002 and a binding affinity ratio (relative to standard peptide) [5] of 0.0001.
“[…] (P. falciparum LSA, position 1388, 9 amino acids) (peptide; other documents disagree on this pair)” gave a binding affinity ratio (relative to standard peptide) [4] of 0.0002 and a binding affinity ratio (relative to standard peptide) [5] of 0.0001.
Work on “[…] (Pf LSA position 1751, 9-mer) (peptide; other documents disagree on this pair)” yielded a binding affinity ratio (IC50 of standard peptide / IC50 of test peptide) [6] of 0.0018.
In the case of “[…] (P. falciparum LSA, position 1660, 10 amino acids) (peptide; other documents disagree on this pair)”, the binding affinity ratio (relative to standard peptide) [7] is reported as 0.0009, the binding affinity ratio (relative to standard peptide) [8] is reported as 0.0029 and the binding affinity ratio (relative to standard peptide) [4] is reported as 0.0002. It also gave a binding affinity ratio (relative to standard peptide) [9] of 0.0008 and a binding affinity ratio (relative to standard peptide) [5] of 0.0001.
“[…] (LSA position 49, 9-mer) (peptide; other documents disagree on this pair)” showed a binding affinity ratio (IC50 of standard peptide / IC50 of test peptide) [6] of 0.037.
“[…] (P. falciparum LSA, position 1713, 10 amino acids) (peptide; other documents disagree on this pair)” was tested, and the binding affinity ratio (relative to standard peptide) [7] was 0.0009, the binding affinity ratio (relative to standard peptide) [8] was 0.0046 and the binding affinity ratio (relative to standard peptide) [4] was 0.0002. The binding affinity ratio (relative to standard peptide) [9] was 0.0055.
With “[…] (LSA position 1703, 9-mer) (peptide; other documents disagree on this pair)” the binding affinity ratio (IC50 of standard peptide / IC50 of test peptide) [6] was 0.0027.
“[…] (LSA position 1750, 10-mer) (peptide; other documents disagree on this pair)” was tested, and the binding affinity ratio (IC50 of standard peptide / IC50 of test peptide) [6] was 0.0002.
“[…] (P. falciparum LSA, position 1575, 9 amino acids) (peptide; other documents disagree on this pair)” showed a binding affinity ratio (relative to standard peptide) [4] of 0.0002 and a binding affinity ratio (relative to standard peptide) [5] of 0.0001.
“[…] (P. falciparum LSA, position 1609, 9 amino acids) (peptide; other documents disagree on this pair)” gave a binding affinity ratio (relative to standard peptide) [4] of 0.0002 and a binding affinity ratio (relative to standard peptide) [5] of 0.0001.
In the case of “[…] (EXP position 84, 10 amino acids) (peptide; other documents disagree on this pair)”, the binding affinity ratio (IC50 of standard peptide / IC50 of test peptide) [10] is reported as 0.0059.
In the case of “[…] (LSA position 41, 9-mer) (peptide; other documents disagree on this pair)”, the binding affinity ratio (IC50 of standard peptide / IC50 of test peptide) [6] is reported as 0.003.
Work on “[…] (P. falciparum LSA, position 1676, 9-mer) (peptide; other documents disagree on this pair)” yielded a binding affinity ratio (IC50 of standard peptide / IC50 of test peptide) [6] of 0.0013.
Work on “[…] (Pf LSA 1693, 9-mer A03 supermotif peptide) (peptide; other documents disagree on this pair)” yielded a binding affinity ratio (IC50 of standard peptide / IC50 of test peptide) [11] of 0.0054.
For “[…] (LSA position 1726, 10-mer) (peptide; other documents disagree on this pair)”, the binding affinity ratio (IC50 of standard peptide / IC50 of test peptide) [6] was 0.0002.
Substance “[…] (LSA position 520, 10-mer) (peptide; other documents disagree on this pair)” has a binding affinity ratio (IC50 of standard peptide / IC50 of test peptide) [6] of 0.0002.
Substance “[…] (EXP position 84, 9 amino acids) (peptide; other documents disagree on this pair)” has a binding affinity ratio (IC50 of standard peptide / IC50 of test peptide) [10] of 0.035.
Substance “[…] (LSA position 1183, 10-mer) (peptide; other documents disagree on this pair)” has a binding affinity ratio (IC50 of standard peptide / IC50 of test peptide) [6] of 0.0002.
With “[…] (Pf LSA 1854, 9-mer A03 supermotif peptide) (peptide; other documents disagree on this pair)” the binding affinity ratio (IC50 of standard peptide / IC50 of test peptide) [2] was 0.034.
Work on “[…] (P. falciparum SSP2, position 31, 9 amino acids) (peptide; other documents disagree on this pair)” yielded a binding affinity ratio (relative to standard peptide) [2] of 0.0002 and a binding affinity ratio (relative to standard peptide) [1] of 0.0005.
For “[…] (Pf LSA 1834, 10-mer A03 supermotif peptide) (peptide; other documents disagree on this pair)”, the binding affinity ratio (IC50 of standard peptide / IC50 of test peptide) [12] was 0.0042, the binding affinity ratio (IC50 of standard peptide / IC50 of test peptide) [2] was 0.0007 and the binding affinity ratio (IC50 of standard peptide / IC50 of test peptide) [13] was 0.0009. The binding affinity ratio (IC50 of standard peptide / IC50 of test peptide) [1] was 0.0081.
In the case of “[…] (LSA, position 1834, 10 amino acids) (peptide; other documents disagree on this pair)”, the binding affinity ratio (IC50 of standard peptide / IC50 of test peptide) [3] is reported as 0.0007.
“[…] (P. falciparum EXP-1, position 80, 9 amino acids) (peptide; other documents disagree on this pair)” gave a binding affinity ratio (IC50 of standard peptide / IC50 of test peptide) [10] of 0.021.
Substance “[…] (LSA position 40, 10-mer) (peptide; other documents disagree on this pair)” has a binding affinity ratio (IC50 of standard peptide / IC50 of test peptide) [6] of 0.0002.
With “[…] (LSA position 1387, 10-mer) (peptide; other documents disagree on this pair)” the binding affinity ratio (IC50 of standard peptide / IC50 of test peptide) [6] was 0.0002.
With “[…] (LSA, position 1854, 10 amino acids) (peptide; other documents disagree on this pair)” the binding affinity ratio (IC50 of standard peptide / IC50 of test peptide) [3] was 0.049.
Work on “[…] (LSA position 1574, 10-mer) (peptide; other documents disagree on this pair)” yielded a binding affinity ratio (IC50 of standard peptide / IC50 of test peptide) [6] of 0.0002.
“[…] (Pf LSA 1825, 10-mer A03 supermotif peptide) (peptide; other documents disagree on this pair)” gave a binding affinity ratio (IC50 of standard peptide / IC50 of test peptide) [2] of 0.0009.
In the case of “[…] (LSA position 49, 10-mer) (peptide; other documents disagree on this pair)”, the binding affinity ratio (IC50 of standard peptide / IC50 of test peptide) [6] is reported as 0.0018.
For “[…] (Pf LSA 1631, 10-mer A03 supermotif peptide) (peptide; other documents disagree on this pair)”, the binding affinity ratio (IC50 of standard peptide / IC50 of test peptide) [12] was 0.0086 and the binding affinity ratio (IC50 of standard peptide / IC50 of test peptide) [13] was 0.0011.
Substance “[…] (LSA, position 1825, 10 amino acids) (peptide; other documents disagree on this pair)” has a binding affinity ratio (IC50 of standard peptide / IC50 of test peptide) [3] of 0.0009.
“[…] (P. falciparum EXP-1, position 79, 10 amino acids) (peptide; other documents disagree on this pair)” was tested, and the binding affinity ratio (IC50 of standard peptide / IC50 of test peptide) [10] was 0.0022.
For “[…] (Pf LSA 1704, 9-mer A03 supermotif peptide) (peptide; other documents disagree on this pair)”, the binding affinity ratio (IC50 of standard peptide / IC50 of test peptide) [12] was 0.0025, the binding affinity ratio (IC50 of standard peptide / IC50 of test peptide) [11] was 0.32 and the binding affinity ratio (IC50 of standard peptide / IC50 of test peptide) [2] was 0.0007. The binding affinity ratio (IC50 of standard peptide / IC50 of test peptide) [13] was 0.0043.
For “[…] (LSA position 1855, 10-mer) (peptide; other documents disagree on this pair)”, the binding affinity ratio (IC50 of standard peptide / IC50 of test peptide) [6] was 0.0045.
In the case of “[…] (LSA position 1591, 10-mer) (peptide; other documents disagree on this pair)”, the binding affinity ratio (IC50 of standard peptide / IC50 of test peptide) [6] is reported as 0.0002.
“[…] (Pf LSA 68, 9-mer A03 supermotif peptide) (peptide; other documents disagree on this pair)” was tested, and the binding affinity ratio (IC50 of standard peptide / IC50 of test peptide) [2] was 0.0038 and the binding affinity ratio (IC50 of standard peptide / IC50 of test peptide) [1] was 0.0028.
“[…] (EXP position 83, 10 amino acids) (peptide; other documents disagree on this pair)” gave a binding affinity ratio (IC50 of standard peptide / IC50 of test peptide) [10] of 0.038.
“[…] (LSA position 1703, 10-mer) (peptide; other documents disagree on this pair)” gave a binding affinity ratio (IC50 of standard peptide / IC50 of test peptide) [6] of 0.0002.
Work on “[…] (Pf LSA 1830, 10-mer A03 supermotif peptide) (peptide; other documents disagree on this pair)” yielded a binding affinity ratio (IC50 of standard peptide / IC50 of test peptide) [1] of 0.0004.
